Numbering of substitutions follows the chain as printed.
B1: 201805_NiV_PL3_G2 (antibody, V domains shown)
VH: QIQLVQSGPELKKPGETVKISCTTSGFIFRNYGVNWVKRAPGKGLKWMGWIDAYTGEPAYADDFKGRFAFSLEMSANTAYLQITNLKNEDMATYFCARQGWGEAMDYWGQGTSVTVSS
VL: DVLMTQSPLSLPVSSGDQASISCRSSQTFVHSNGNTYLEWYLQKPGQSPKLLIYKVSNRFSGVPDRFIGSGSGTDFTLKISRVEADDLGVYYCFQGSHVPWAFGGGTKLEIK
B2: 201805_NiV_PL4_D5 (antibody, V domains shown)
VH: QIQLVQSGPELKKPGETVKISCKASGFTFTNYGINWVKQAPGKGLKWMGWTDTFTGEPTYADDFKGRFAFSLETSASTAYLQINNLKNEDMATYFCARQGWGEAMDYWGQGTSVTVSA
VL: DVLDEQFHFLPVSLGDQASISCRSSQSIVHSNGNTYLEWYLQKPGQSPKLLIYKVSNRFSGVPDRFSGSGSGTDFTLKISRVEAEDLGVYYCFQGSHVPWTFGGGTKLEIK
B3: 201805_NiV_PL4_C7 (antibody, V domains shown)
VH: FEESGGLVQPGGSMKISCVASGFTFSNYWMNWVRQSPEKGLEWIAQIRLKSDNYATHYAESVKGRFTISRDDSKSSVYLQMNNLRAEDSGIYYCTGILDYWGQGTSVTVSQ
VL: YIQMTQSPSSMSVSLGDTVSITCHASQGISSNIGWLQQKPGKSFKVLIYHGTNLEDGVPSRFSGSGSGADYSLTISSLESEDFADYYCVQYAQFPYTFGGGPNDKT
B4: 201805_NiV_PL3_H3 (antibody, V domains shown)
V domain 1: EVQLEESGGGLVPGGSLKLSCAASGFTFISYAMSWIRQTPEKRLEWVATITSGGSYTYYPDSVMGRFTISRDNAKNTLHLQMSSLRSEDTAIYYCARGGYGSISPYYFDYWGQGTTLTSSA
V domain 2: DIQMTQSSSSFSVSLGDRVTITCKAGEDIYNRLAWYQQKPGNAPRLLISGAISLETGVPSRFSGSGSGKDYTLSITSLQTEDVATYYCQQYWTNPWTFGGGTKLKSN
B5: 201805_NiV_PL4_E1 (antibody, V domains shown)
VH: EVQLEESGGGLVPGGSLKLSCAASGFTFSDYYMYWVRQTPEKRLEWVATISDGGSYTYYPDSVKGRFTISRDNAKNNLYLQMSSLKSEDTAMYYCAREKPDRGHYYAMDYWGQGTSVTVLQ
VL: IQMTQSSSSFSVSLGDRVTITCKASEDIYNRLAWYQQKPGNAPRLLISGATSLETGVPSRFSGSGSGKDYTLSITSLQTEDVATYYCQQYWSTPYTFGGGTKLKN
B6: 201805_NiV_PL3_H6 (antibody, V domains shown)
VH: EVQLEESGGGLVKPGGSLKLSCTASGFAFSTYDMSWVRQTPEKRLEWVAYISSGGGSTYYPDSVKGRFTISRDNARNTLYLQMSSLKSDDTAMYYCVRDDGYYGGAWFAYWGQGTLVTVSA
VL: DIQMTQTTSSLSASLGDRVTISCRASQDIRNYLNWYQQKPDGTVKLLIYYTSRFHSGVPSRFSGSGSGTDYSLTINNLEQEDITTYFCQQGYILPWTFGGGTKLEIK
B7: 201805_NiV_P1_G1 (antibody, V domains shown)
VH: QVQLQQSGAELAKPGASVKLSCKATGYTFTGSWIEWVKLRPGHGLEWFGEIFPGTGSVKHNEKFRGKAIITAETSSNTAYMKLSSLTTEDSAIYFCSRSNTNYEFFDVWGTGTTVTVSS
VL: EILLTQSPAIISASPGERVTFTCSASSGVNYMNWYQQKPGSSPKIWIYGVSNLASGVPARFSGSGSGTSFSFTITNLEAEDVATYYCQQRSTFPLTFGAGTKLEIK
B8: 201805_NiV_PL4_E11 (antibody, V domains shown)
VH: QVQLQQSGAELVKPGASVKLSCKASGYTFTNYDINWVRQRPEQGLEWIGWIFPGDGTTSYNEKFKDKATLTTDKSSSTAYMQLSRLTSEDSTVYFCARLGWGGAMDYWGQGTSVTVSA
VL: YTLMTQSPLSLPVSLGDQASISCRSSQSIVHSNGNTYLQWYLQKPGQSPKLLIYKVSNRFSGVPDRFSGSGSGTDFTLKISRVEAEDLGVYYCFQGSHVPYTFGGGPSNKR
B9: 201805_NiV_PL3_G11 (antibody, V domains shown)
VH: QVQLQQSGAELVKPGASVKLSCKASGYIFTNYDINWVRQRPEQGLEWIGWIFPGDVSTNYNEKFKGKATLTTDKSSSTAYMQLSRLTSEDSAVYFCARRSFQAMDYWGQGTSVTVSA
VL: B1 VL with S7T, S15L, T28S, F29I, I68S, D86E, A102T
B10: 201805_NiV_P1_A6 (antibody, V domains shown)
VH: LCLLTSSRSGLVRPGASVKLSCKASGYSFTSYWMNWVKQRPGHGLEWIGMIHPSDSETRLNQRFKDKATLTVDKSSSTAYMQLSSPTSEDSAVYYCAREDFYAMDYWGQGTSVTFSA
VL: DIVMSQSPSSLAVSVGEKITMSCKSSQSLLYSSNKKKYLAWYQQKPGQSPKLLIYWASTRESGVPDRFTGSGSGTDFTLTISSVKAEDLAVYYCQQYYSYPYTFGGGPSNKR
B11: 201805_NiV_PL3_E1 (antibody, V domains shown)
VH: RFRLQQSGAELVKPGASVKLSCRASGYIFTSYWMHWVKQRPGQGLEWIGMIHPNSGSPNYNEKFKSKATLTVDNSSSTAYMQLSSLTSEDSAVYYCARTLLGQGAWFAYWGQGTLVTLAA
VL: YIQMTLSPATLSVTPGDRVSLSCRASQSISDFLHWYQQKSHESPRLLIKYASQSISGIPSRFSGSGSGSDFTLSINSVEPEDVGVYYCQNGHSFPYTFGGGTKLKT
B12: 201805_NiV_P2_D4 (antibody, V domains shown)
VH: EVQLQQSGAELVKPGASVKMSCKASGYTFTDYSIHWVKQKSGQGLEWIGWFYPGSGSIKNSDKVKDEAILTADKSSSTVYLELSSLTSEDSAVYFCARHGGGYDYGRAWFVYWGQGTLVTLEQ
VL: FTQMTQSPKFLLVSAGDRVTITCKASQSVSNDVAWYQQKPGQSPKLLIYYASNRYTGVPDRFTGSGYGTDFTFTISTVQAEDLAVYFCQQDYGSPYTFGGGTKLKN
B13: 201805_NiV_PL3_A4 (antibody, V domains shown)
VH: QVQLQQSGTELVKPGASVKLSCKASGYTFTSYWMHWVKQRPGQGLEWIGNINPSNGYTNNNEKFKSKATLTVDKSSSTAYMQLSSLTSEDSAVYYCARGGIYYYGSSLYYYTMDYWGQGTSVTVSS
VL: B4 V domain 2 with G26S, G50D, I52T, Q89H, T93S, N94T, K105E, S106I, N107K
B14: 201805_NiV_P2_F7 (antibody, V domains shown)
VH: QVQLQQSGAELVKPGASVKMSCKASGYTFTNYWIHWVKQRPGQGLEWIGEIDPSNGNSDHNQDFKVKATLTVDTFSSTAYMQLNSLTSEDSAVYYCARSRYYFDYWGQGTTLTVSA
VL: QIVLPQSPAIMSASPGEKVTLTCSARSSVSSGYLYWYQQKPGSSPKLWIYSTSNLASGVPTRFSGSGSGTSYSLTISSMEAEDAASYFCHQWSSYPPTFGGGTKLEIK
B15: 201805_NiV_P1_H5 (antibody, V domains shown)
VH: EFQLQQSGPEVVKPGASVRISCKTSGYSFTDYNMNWVRQNNGRSLEWIGVINPNYGTFTYNQKFRGKATLTVDQSSSTAYMQLNSLTSADSAVYFCARAPDYYGINFYFDYWGQGTTLTVSA
VL: DVVMTQTPLSLPVSLGDQASISCRSSQSLVHSNGDTYLHWYLQKPGQSPKLLIYKVSNRFSGVPDRFSGSGSGTDFTLKISRVEAEDLGVYFCSQSTHVPPWTFGGGTKLEIK
B16: 201805_NiV_PL4_F4 (antibody, V domains shown)
VH: B15 VH with R19K, R38K, N40S, R43K, F58T, A89E, F95Y
VL: B15 VL with T7S
B17: 201805_NiV_PL3_H11 (antibody, V domains shown)
VH: EVQLQQSGPELVKPGTSVKISCKASDYSFTGYFMNWVKQSHGKSLEWIGRINPYNGDTFYNQKFKGKATLTVDKSSSTAHMELLSLTSEDSAVYYCAAFDVYYPAWFAYWGQGTTVTVSS
VL: B4 V domain 2 with I21F, G26S, I52T, S74T, T93S, N94I, K105E, S106I, N107K
B18: 201805_NiV_PL4_D8 (antibody, V domains shown)
VH: EVQLQQSGPELVKPGASVKISCQASGYTFTDSNMNWVRQTHGKSLEWIGDVNPNNGGTSYNQRFKGKATLTVDKSSSTAYMEFRSLTSEDSAVYFCSRRALITTVVADYYGLDYWGQGTSVTVSA
VL: SIVMTQSPKFLLVSAGDRVTMTCKASQSVNSDVVWFQQKPGQSPKLLIYYASIRYTGVPDRFTGSGYGTDFTFTISPVQAEDLAVYFCQQDYSSPYTFGGGTKLEIK
B19: 201805_NiV_PL4_C5 (antibody, V domains shown)
VH: EVQLQQSGPELVKPGASMKISCKASGYSFTGYTMNWVKQSHGKNLEWIGLINPYIGGTSYNQKFKGKATLTVDKSSSTAYMELLSLTSEDSAVYYCARLLGREGYYFDYWGQGTTLTSLS
VL: DIQMTQTTSSLSASLGDRVTISCRASQDISNYLNWYQQKPDGTVKLLIYYTSRLHSGVPSRFSGSGSGTDYSLTISNLEQEDIATYFCQQGTTLPFTFGSGTKWKN
B20: 201805_NiV_PL3_C3 (antibody, V domains shown)
V domain 1: RFKLQQSGPELVKPGASMKISCKASGYSFTGYTMNWVKQSHGKNLEWIGLINPYIGGTSYNQKFKGKATLTVDKSSSTAYMELLSLTSEDSAVYYCARGGVYYGSNYDFDYWGQGTTLTSLS
V domain 2: DIQMTQTTSSLSASLGDRVTISCSASQGISNYLNWYQQKPDGTVKLLIYYTSSLHSGVPSRFSGSGSGTDYSLTISNLEPEDIATYYCQQYSKLPRTFGGGTKLKSN
B21: 201805_NiV_PL3_D4 (antibody, V domains shown)
VH: EVQLQQSGPELVKPGASVKMSCKASGYTFTSNVMHWVKQKPGQGLEWIGYINPYNDGTRYNEKFKGKATLTSDKSSSTAYMELSSLTSEDSAVYYCARRFYRGAMDYWGQGTSVTVSA
VL: NIVLHQSPASLAVSLGQRATISCRASESVDTYDNSFMHWYQQKPGQPPKLLIYLASKLESGVPARFSGSGSRTDFTLTIDPVEADDAATYYCQQNYEDPYTFGGGTKLEIK

Key:
[1] = target: prefusion-stabilized Nipah virus fusion (F) glycoprotein, construct NiVF_prefusion (Nipah virus, Malaysian strain, stabilised)
[2] = target: postfusion Nipah virus fusion (F) glycoprotein, construct NiVF_postfusion (Nipah virus, Malaysian strain, stabilised)
[3] = target: prefusion-stabilized NiV F (NiVop08) (Nipah virus, Malaysian strain, stabilised)

Binder	binding result [1]	binding result [2]	binding result [3]
B1	binds	binds	–
B2	binds	binds	–
B3	binds	–	–
B4	binds	binds	–
B5	binds	–	–
B6	binds	binds	–
B7	binds	binds	–
B8	binds	binds	–
B9	binds	binds	–
B10	binds	binds	–
B11	binds	binds	–
B12	binds	–	–
B13	binds	–	–
B14	binds	binds	–
B15	–	–	binds
B16	–	–	binds
B17	–	–	binds
B18	–	–	binds
B19	–	–	binds
B20	–	–	binds
B21	–	–	binds
